From US20130315914A1 (NOVIMMUNE, published 2013)
Residue numbers refer to the chain shown, from its start.

B1: 1E11.C2E3 antibody (IgG1) (antibody, V domains shown)
VH: QVQLQESGPGLVKPSDTLSLTCAVSGYPIRFGYSWHWIRQPPGKGLEWMGYIHYSGYTDFNPSLKTRITISRDTSKNQFSLKLSSVTAVDTAVYYCARKDSGNYFPYWGQGTLVTVSS
VL: EIVLTQSPDFQSVTPKEKVTITCRASQSISDHLHWYQQKPDQSPKLLIKYASHAISGVPSRFSGSGSGTDFTLTINSLEAEDAATYYCQQGYDFPLTFGGGTKVEIK
B2: 1E11.C4 antibody (IgG1) (antibody, V domains shown)
VH: B1 VH with Y27F, R30G, F31Q
VL: B1 VL with Y92H, D93S
B3: humanized anti-TLR4 antibody 15C1 (antibody, V domains shown)
VH: B1 VH with P28S, R30T, F31G, S101P, G102S, N103D, Y104A
VL: B1 VL with Y92H, D93S
notes: also called 15C1 Mab; parental antibody 15C1

Experiments:
[1] = molecular target: T1, soluble histidine-tagged form of human TLR4/MD2 complex (human, UniProt Q9Y6Y9 19-160); experiment: competitive ELISA, as retold in Example 9 (Table 8 prints 39 for this clone)
Method: Briefly, supernatants from transfected cells were incubated overnight at 4° C. with ImmunoPure (G) IgG binding buffer (Pierce, Rockford Ill.). Samples were then passed over Protein G-Sepharose 4B fast flow columns and the IgG consequently purified using elution buffer. The eluted IgG fraction was then dialyzed against PBS and the IgG content quantified by absorption at 280 nm. Purity and IgG integrity were verified by SDS-PAGE. Relative binding potency of 1E11 variants was assessed by competitive ELISA. Briefly, 15C1 antibody was coated overnight in a 96-well Maxisorp plate and then blocked with PBS-BSA. The 15C1 reference antibody and affinity matured variants of 1E11 were added to the plate at a fixed concentration and a 3.5-fold serial dilution of the samples was performed. Then, soluble histidine-tagged form of human TLR4/MD2 complex was added to the plate at a fixed concentration. After incubation one hour at 37° C., the plate was washed and a solution of Penta-His-HRP antibody was distributed, this step was followed by an additional incubation time of one hour at 37° C. Finally, the plate was washed and TMB was added for colorimetric revelation, the enzymatic reaction is stopped by H₂SO₄ solution. The results were determined according to the absorbance at 450 nm. The relative binding potency was calculated by dividing the reference EC₅₀ with affinity matured variants EC₅₀ (Table 8). […]

[2] = molecular target: human TLR4 in human whole blood (human); experiment: cell-based or functional assay
[3] = molecular target: T2, cynomolgus monkey TLR4 expressed on stably transfected CHO-K1 cells (cynomolgus monkey, UniProt Q9TSP2 24-826 (Papio anubis entry)); experiment: summary grade (species binding potential); assay not given
T2 construct: Transfected alone; also called CHO cells expressing the cynomolgus monkey TLR4
T2 chain: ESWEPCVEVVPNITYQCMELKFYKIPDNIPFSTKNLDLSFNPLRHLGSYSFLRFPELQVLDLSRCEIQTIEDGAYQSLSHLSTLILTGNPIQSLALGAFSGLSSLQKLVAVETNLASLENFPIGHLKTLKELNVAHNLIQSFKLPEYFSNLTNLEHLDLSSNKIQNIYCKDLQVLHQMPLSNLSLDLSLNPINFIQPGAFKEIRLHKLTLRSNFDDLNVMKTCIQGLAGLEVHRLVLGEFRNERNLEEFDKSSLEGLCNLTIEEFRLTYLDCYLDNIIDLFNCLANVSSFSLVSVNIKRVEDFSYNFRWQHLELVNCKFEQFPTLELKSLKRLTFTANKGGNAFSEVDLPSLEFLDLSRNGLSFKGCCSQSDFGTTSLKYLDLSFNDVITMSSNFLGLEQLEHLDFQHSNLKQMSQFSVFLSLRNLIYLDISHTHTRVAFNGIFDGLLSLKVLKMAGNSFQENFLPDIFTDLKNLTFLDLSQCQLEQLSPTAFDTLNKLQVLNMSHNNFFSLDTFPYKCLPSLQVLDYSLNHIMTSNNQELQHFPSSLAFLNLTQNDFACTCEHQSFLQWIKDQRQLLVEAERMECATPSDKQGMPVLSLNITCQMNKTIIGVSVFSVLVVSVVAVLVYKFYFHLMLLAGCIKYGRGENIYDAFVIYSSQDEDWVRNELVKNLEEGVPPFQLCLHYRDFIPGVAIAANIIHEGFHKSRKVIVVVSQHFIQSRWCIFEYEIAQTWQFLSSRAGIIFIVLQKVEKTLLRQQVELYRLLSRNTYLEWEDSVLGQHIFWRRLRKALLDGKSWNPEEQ

[4] = molecular target: T1, soluble histidine-tagged form of human …; experiment: competitive ELISA; 15C1 reference EC50 divided by variant EC50
Method: (§1) The VH and VL cDNA sequences in their appropriate expression vectors were transfected into mammalian cells using the Fugene 6 Transfection Reagent (Roche, Basel, Switzerland). Briefly, Peak cells were cultured in 6-well plates at a concentration of 6×10⁵ cells per well in 2 mL culture media containing fetal bovine serum. The expression vectors, encoding the candidate VH and VL sequences, were co-transfected into the cells using the Fugene 6 Transfection Reagent according to manufacturer's instructions. One day following transfection, the culture media was aspirated, and 3 mL of fresh serum-free media was added to cells and cultured for three days at 37° C. Following three days culture period, the supernatant was harvested for IgG purified on protein G-Sepharose 4B fast flow columns (Sigma, St. Louis, Mo.) according to manufacturer's instructions. Briefly, supernatants from transfected cells were incubated overnight at 4° C. with ImmunoPure (G) IgG binding buffer (Pierce, Rockford Ill.). Samples were then passed over Protein G-Sepharose 4B fast flow columns and the IgG consequently purified using elution buffer. The eluted IgG fraction was then dialyzed against PBS and the IgG content quantified by absorption at 280 nm. Purity and IgG integrity were verified by SDS-PAGE. Relative binding potency of 1E11 variants was assessed by competitive ELISA. Briefly, 15C1 antibody was coated overnight in a 96-well Maxisorp plate and then blocked with PBS-BSA. The 15C1 reference antibody and affinity matured variants of 1E11 were added to the plate at a fixed concentration and a 3.5-fold serial dilution of the samples was performed. Then, soluble histidine-tagged form of human TLR4/MD2 complex was added to the plate at a fixed concentration. After incubation one hour at 37° C., the plate was washed and a solution of Penta-His-HRP antibody was distributed, this step was followed by an additional incubation time of one hour at 37° C. Finally, the plate was washed and TMB was added for colorimetric revelation, the enzymatic reaction is stopped by H₂SO₄ solution. The results were determined according to the absorbance at 450 nm. The relative binding potency was calculated by dividing the reference EC₅₀ with affinity matured variants EC₅₀ (Table 8).

[5] = molecular target: T1, soluble histidine-tagged form of human …; experiment: competitive ELISA; coated 15C1 as competitor, soluble His-tagged human TLR4/MD2, Penta-His-HRP
Method: as §1

[6] = molecular target: T1, soluble histidine-tagged form of human …; experiment: competitive ELISA; lower end of the range, tied to 1E11.C4 by Table 8 (2.5 there)
Method: The VH and VL cDNA sequences in their appropriate expression vectors were transfected into mammalian cells using the Fugene 6 Transfection Reagent (Roche, Basel, Switzerland). Briefly, Peak cells were cultured in 6-well plates at a concentration of 6×10⁵ cells per well in 2 mL culture media containing fetal bovine serum. The expression vectors, encoding the candidate VH and VL sequences, were co-transfected into the cells using the Fugene 6 Transfection Reagent according to manufacturer's instructions. One day following transfection, the culture media was aspirated, and 3 mL of fresh serum-free media was added to cells and cultured for three days at 37° C. Following three days culture period, the supernatant was harvested for IgG purified on protein G-Sepharose 4B fast flow columns (Sigma, St. Louis, Mo.) according to manufacturer's instructions. Briefly, supernatants from transfected cells were incubated overnight at 4° C. with ImmunoPure (G) IgG binding buffer (Pierce, Rockford Ill.). […] The eluted IgG fraction was then dialyzed against PBS and the IgG content quantified by absorption at 280 nm. […] Relative binding potency of 1E11 variants was assessed by competitive ELISA. […] The results were determined according to the absorbance at 450 nm. The relative binding potency was calculated by dividing the reference EC₅₀ with affinity matured variants EC₅₀ (Table 8).

[7] = molecular target: T2, cynomolgus monkey TLR4 expressed on …; experiment: flow cytometry; purified IgG on CHO cells expressing cynomolgus TLR4
Method: 10⁵ CHO cells or CHO cells expressing the cynomolgus monkey TLR4 were incubated in phosphate-buffered saline, 2% bovine serum albumin with different concentrations of purified antibodies selected by FMAT (1A1, 1A6, 1B12, 1C7, 1C10, 1C12, 1D10, 1E11, 1G12) with 15C1 as control. Cells were washed in phosphate-buffered saline, 2% bovine serum albumin and incubated in Alexa Fluor® 647 goat anti human IgG (H+L) (1:200; Invitrogen). Cells were analyzed using a FACS calibur cytometer (BD Biosciences).

T1 sequence (Q9Y6Y9 19-160, one chain of several): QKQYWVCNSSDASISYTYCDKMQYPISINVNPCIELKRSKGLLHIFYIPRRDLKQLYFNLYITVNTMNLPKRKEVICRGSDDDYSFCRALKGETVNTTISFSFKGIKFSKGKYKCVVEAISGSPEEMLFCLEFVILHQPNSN

Binder | increase in binding potency (fold, compared to 15C1) [1] | IC50, inhibition of IL-6 production in human whole blood assay [2] | fold better than 15C1 at blocking human TLR4 (human whole blood assay) [2] | binding result [3] | Relative binding potency increase [4] | EC50 [5] | relative binding potency (fold-increase compared to 15C1) [6] | binding result [7]
B1 | 40 fold | 0.05 µg/mL | 5 fold | binds | 39 fold | 0.016 µg/mL |  | 
B2 |  |  |  | binds | 2.5 fold | 0.251 µg/mL | 3 fold | 
B3 |  | ~0.22 µg/mL |  |  |  | 0.63 µg/mL |  | no binding
